Results as given in patent publication US20230322924A1 (Janssen / Centocor, published 2023).

Assays:
[1] = target: T1, Human CD33 ECD-HSA (human); assay: SPRi off-rate screen (IBIS MX96)
T1 construct: CD33 ECD fused at the C-terminus to monomeric HSA (C58S) and a six-histidine tag; also called C33W2; huCD33 ECD-HSA

[2] = target: T2, Human CD33-C2-HSA (human); assay: SPRi off-rate screen (IBIS MX96)
T2 construct: C2 domain of human CD33 fused to HSA; also called C33W4; huCD33-C2-HSA

[3] = target: Human IgG; assay: Biacore 8K non-specific binding test, antibody over immobilised protein
Procedure: (§1) Non-specific binding of the lead molecule to unrelated surfaces is determined by biosensor technology (Biacore 8K). Antibody is passed over SPR surfaces coated with unrelated proteins. […] Irrelevant surfaces include negatively charged protein (Soy Trypsin Inhibitor), positively charged protein (Lysozyme and β-defensin), hydrophobic (Rh-integrin a4b7), human IgG, sticky protein (Rh-CD19). Proper controls are used in this experiment. Lead is flown over two surfaces, one is a blank and the other has a molecule directly immobilized. The response unit (RU) level is determined by subtracting the blank RU from the test surface RU. […] A response unit ≥100 predicts high risks for non-specific binding to charged/hydrophobic/IgG surfaces which would create challenges during manufacturing and translate to poor PK properties.

[4] = target: Lysozyme; assay: as above
Procedure: as §1

[5] = target: T3, rh-CD19 (UniProt P15391 20-291, limits assumed); assay: as above
T3 sequence (looked up): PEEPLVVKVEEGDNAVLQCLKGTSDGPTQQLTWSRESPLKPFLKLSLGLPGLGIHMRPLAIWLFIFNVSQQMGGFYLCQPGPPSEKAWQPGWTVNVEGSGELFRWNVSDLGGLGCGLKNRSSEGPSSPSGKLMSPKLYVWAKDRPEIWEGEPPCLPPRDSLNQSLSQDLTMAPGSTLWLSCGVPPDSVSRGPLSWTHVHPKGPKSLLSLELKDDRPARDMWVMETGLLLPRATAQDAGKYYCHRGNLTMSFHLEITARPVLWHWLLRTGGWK
Procedure: as §1

[6] = target: T4, B-Defensin-3; assay: as above
T4 construct: also called β-defensin
Procedure: as §1

[7] = target: rh-Integrin a4b7 (UniProt P13612 34-977; P26010 20-723, limits assumed); assay: as above
Procedure: as §1

[8] = target: T5, human TMEFF2 extracellular domain (ECD) (human, UniProt Q9UIK5 41-320); assay: KinExA solution equilibrium affinity
T5 construct: also called TMEFF2-ECD
T5 sequence: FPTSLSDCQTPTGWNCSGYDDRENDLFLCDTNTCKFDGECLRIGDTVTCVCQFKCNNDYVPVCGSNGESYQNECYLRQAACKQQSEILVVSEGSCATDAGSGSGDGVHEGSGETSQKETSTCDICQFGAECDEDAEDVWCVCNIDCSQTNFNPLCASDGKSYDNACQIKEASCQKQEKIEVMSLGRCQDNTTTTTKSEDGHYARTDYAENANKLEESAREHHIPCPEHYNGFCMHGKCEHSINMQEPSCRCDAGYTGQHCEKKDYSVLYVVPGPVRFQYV
Procedure: Serial dilutions of human TMEFF2 extracellular domain (ECD) were prepared with a constant concentration of anti-TMEFF2 mAb in 10 mM HEPES, 150 mM NaCL, 0.05% surfactant P20, pH 7.4, 0.1% BSA, and 0.02% NaN3. The reaction mixtures were incubated at RT until the binding interactions reached equilibrium. The duration of the incubation was determined using KinExA software simulation. Beads were prepared by direct covalent immobilization of TMEFF2-ECD by amine-coupling on pre-activated beads composed of bis-acrylamide/azlactone copolymer (Pierce Biotechnology, Inc.). After incubation the samples were run on the KinExA instrument to assess free antibody in the mixture by passing the mixture though the TMEFF2-modified beads, and detecting the captured antibody using a fluorescently labeled secondary antibody. The data was fit with a 1:1 binding model using the KinExA Pro software.

[9] = target: T6, N-terminal CD3ε peptide; assay: Biacore 8K SPR, antibody captured on anti-human Ig, peptide as analyte
T6 construct: domain: N-terminal CD3ε peptide
Procedure: Kinetic rate constants were measured by SPR performed using Biacore 8K (GE Healthcare) and anti-human Fc biosensor surfaces. Anti-human immunoglobulin antibodies were covalently coupled to the surface of a CM4 sensor chip (GE Healthcare). Antibodies of interest were captured on the anti-human immunoglobulin sensor chip, followed by injection of N-terminal CD3ε peptide at various concentrations in HEPES Buffered Saline containing 0.05% surfactant P20 (Tween™ 20) and 100 ug/mL BSA. The surface was regenerated with 2 pulses injections of 30 μL of 0.8% phosphoric acid at 100 μL/min. Data reported is the difference in SPR signal between the flow cell containing the captured antibody and a reference cell without captured antibody. Additional instrumental contributions to the signal were removed by subtraction of the data from the blank injection from the reference-subtracted signal. The data were analyzed by fitting association and dissociation phases at all concentrations (global fit) with a 1:1 binding model using the Biaevaluation software (Biacore, Inc.). Data is reported as average+95% CI (Confidence Interval) which is calculated by t value for 95% CI*stdev/square root of the number of replicates.

[10] = target: T7, Cyno CD33 full length (cynomolgus monkey); assay: flow cytometry on HEK293F cells expressing cyno CD33
T7 construct: also called cyCD33

[11] = target: T8, Cyno CD33 ECD-HSA (cynomolgus monkey); assay: ProteOn SPR, mAb captured on anti-human Fc, antigen as analyte
T8 construct: Cyno CD33 ECD fused to HSA and a six-histidine tag; also called C33W1
Procedure: (§2) The panel of mAbs was then further characterized for full affinity analysis as well as epitope binning. The binding of anti-CD33 mAbs to recombinant human CD33 ECD-HSA (C33W2) and cyno CD33 ECD-HSA (C33W1) was measured by ProteOn SPR (Bio-Rad). […] Different mAbs were captured on the anti-human Fc IgG surface at 0.25 or 0.5 μg/ml (160-300 RU) in vertical ligand orientation, with the 6th ligand channel as no ligand surface control. Human and cyno CD33-HSA proteins at 0.3 μM concentration in 3-fold dilution series of 5 concentrations flew in as analyte to bind to captured mAbs in the horizontal orientation. A buffer sample was also injected in the 6th channel to monitor the dissociation of captured mAb and baseline stability. […] The raw biding data were processed by double referencing after subtracting the response data from: 1) the inter-spot to correct for the non-specific interactions between the Ag and the empty chip surface; 2) the buffer channel to correct for baseline drifting due to the dissociation of captured mAb surface over time. The processed data at all antigen concentrations for each mAb were globally fit to a 1:1 simple Langmuir binding model to extract estimates of the kinetic (kₒₙ, koff) and affinity (Kd) constants.

[12] = target: T1, Human CD33 ECD-HSA; assay: as above
Procedure: as §2

[13] = target: T9, Human CD33 full length (human, UniProt P20138 18-364); assay: flow cytometry on HEK293F cells expressing human CD33
T9 construct: also called huCD33

[14] = target: T10, TMEW1 (TMEFF2-FL-ECD-His-Avitag) (human, UniProt Q9UIK5 41-320); assay: Biacore 8K SPR, mAb captured on anti-human Fc, single cycle kinetics
T10 construct: Human TMEFF2 ECD with C-terminal G3S, 6xHis tag and Avi-tag, all in the entry; also called TMEFF2 ECD
T10 sequence: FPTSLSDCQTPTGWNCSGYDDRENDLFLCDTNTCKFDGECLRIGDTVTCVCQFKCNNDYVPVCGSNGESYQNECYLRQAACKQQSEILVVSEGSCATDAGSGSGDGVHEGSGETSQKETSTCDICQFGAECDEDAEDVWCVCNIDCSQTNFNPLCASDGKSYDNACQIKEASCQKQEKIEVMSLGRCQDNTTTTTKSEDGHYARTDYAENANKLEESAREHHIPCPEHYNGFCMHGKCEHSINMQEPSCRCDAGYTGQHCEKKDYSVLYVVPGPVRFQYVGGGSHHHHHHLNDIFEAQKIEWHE
Procedure: The binding of anti-TMEFF2 mAbs to human TMEFF2 ECD was measured by Biacore 8K SPR. The format of the assay was to capture the mAbs using a high density anti-human Fc surface, then inject human TMEFF2 concentration titration using a single cycle kinetics method. […] The mAbs were captured on the anti-human Fc IgG surface at 0.5 μg/ml (˜200-300 RU) on flow cell 2. The running buffer was then changed to HBSP+100 ug/ml BSA. TMEFF2 ECD at 30 nM concentration in 3-fold dilution series was injected from low to high concentration using single cycle kinetics method. The off-rate was monitored 30 minutes after the last or highest concentration injection and then the surface was regenerated using 0.8% phosphoric acid (Bio-Rad). A buffer blank run, capturing the same mAbs and using the same conditions of sample run was also completed. The raw data were processed by subtracting two sets of reference data from the response data: 1) reference flow cell 1 subtracted from sample flow cell 2 and 2) buffer blank run from experimental run. The processed data at all concentrations for each mAb were globally fit to a 1:1 simple Langmuir binding model to extract estimates of the kinetic (kon, koff) and affinity (KD) constants.

T9 sequence (P20138 18-364 limits assumed): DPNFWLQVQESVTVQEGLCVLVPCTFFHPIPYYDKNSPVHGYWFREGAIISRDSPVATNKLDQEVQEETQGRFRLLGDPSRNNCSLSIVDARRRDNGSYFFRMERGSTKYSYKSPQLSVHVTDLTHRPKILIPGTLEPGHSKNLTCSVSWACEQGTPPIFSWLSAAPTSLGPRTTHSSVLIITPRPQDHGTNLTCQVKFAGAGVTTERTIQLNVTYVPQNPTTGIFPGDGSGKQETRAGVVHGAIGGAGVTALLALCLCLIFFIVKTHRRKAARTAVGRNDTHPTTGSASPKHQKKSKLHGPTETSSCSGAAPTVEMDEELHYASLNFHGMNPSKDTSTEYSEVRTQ
T6 sequence (P07766 22-48): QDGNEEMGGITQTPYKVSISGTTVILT
T4 sequence (P81534 23-67): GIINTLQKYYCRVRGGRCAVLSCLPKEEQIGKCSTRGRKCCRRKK
Chain of Lysozyme (P00698 19-147): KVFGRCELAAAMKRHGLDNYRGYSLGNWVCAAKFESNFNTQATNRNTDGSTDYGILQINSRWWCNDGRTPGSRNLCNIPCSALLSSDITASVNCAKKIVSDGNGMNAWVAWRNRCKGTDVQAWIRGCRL

B1: C33B778 (antibody, IgG4, V domains shown)
VH: QVQLVESGGGVVQPGRSLRLSCVASGFTFSSYGMHWVRQAPGKGLEWVAVISYDGSNKYYADSVKGRFTISRDNSKNTLYLQMNSLRAEGTAVYYCAKDFRSFDWLPPDSASYHGMDVWGQGTTVTVSS
VL: SYELTQPPSVSVSPGQTASITCSGDKLGDKYACWYQQKPGQSPVLVIYQDGKRPSGIPERFSGSNFGNKATLTISGTQAMDEADYYCQAWDRNTVVFGGGTKLTVL
notes: also called C33H66/C33L60; C33F78
[1]
  koff: 4.72e-05 s⁻¹
[2]
  koff: 0.00257 s⁻¹

B2: TMCB150 (bispecific antibody, human IgG4 S228P, kappa, lambda, F234A L235A)
heavy 1: not shown
light 1: not shown
heavy 2: QVQLQQSGPRLVRPSQTLSLTCAISGDSVFNNNAAWSWIRQSPSRGLEWLGRTYYRSKWLYDYAVSVKSRITVNPDTSRNQFTLQLNSVTPEDTALYYCARGYSSSFDYWGQGTLVTVSSASTKGPSVFPLAPCSRSTSESTAALGCLVKDYFPEPVTVSWNSGALTSGVHTFPAVLQSSGLYSLSSVVTVPSSSLGTKTYTCNVDHKPSNTKVDKRVESKYGPPCPPCPAPEAAGGPSVFLFPPKPKDTLMISRTPEVTCVVVDVSQEDPEVQFNWYVDGVEVHNAKTKPREEQFNSTYRVVSVLTVLHQDWLNGKEYKCKVSNKGLPSSIEKTISKAKGQPREPQVYTLPPSQEEMTKNQVSLTCLVKGFYPSDIAVEWESNGQPENNYKTTPPVLDSDGSFLLYSKLTVDKSRWQEGNVFSCSVMHEALHNHYTQKSLSLSLGK
light 2: QSALTQPASVSGSPGQSITISCTGTSSNIGTYKFVSWYQQHPDKAPKVLLYEVSKRPSGVSSRFSGSKSGNTASLTISGLQAEDQADYHCVSYAGSGTLLFGGGTKLTVLGQPKAAPSVTLFPPSSEELQANKATLVCLISDFYPGAVTVAWKADSSPVKAGVETTTPSKQSNNKYAASSYLSLTPEQWKSHRSYSCQVTHEGSTVEKTVAPTECS
notes: IgG4 PAA bispecific by Fab-arm exchange; also called TMEB762 x CD3B376
[3]
  response units (RU): 7.5 RU
[4]
  response units (RU): 4.2 RU
[5]
  response units (RU): 3.4 RU
[6]
  response units (RU): 6.4 RU
[7]
  response units (RU): 0 RU
[8]
  Kd: 0.0636 nM
[9]
  Kd: 28.7 nM
  koff: 0.00103 s⁻¹
  kon: 35700 M⁻¹ s⁻¹

B3: C33B912 (antibody, V domains shown)
VH: EVQLVESGGGLVQPGRSLRLSCAASGFTFDDYAMHWVRQAPGKGLEWVSGIGWSGGSIVYADSVKGRFTISRDNAKNSLYLQMNSLRAEDTALYYCAKDSPYGDFFDYWGQGTLVTVSS
VL: DIVMTQSPDSLAVSLGERATINCKSSQTVFYSSNNKNYLAWYQQKPGQPPKLLISWASTRKSGVPDRFSGSGSGTDFTLTVSSLQAEDVAVYYCQHYYSTPYTFGQGTKLEIK
notes: OMNIMouse-derived anti-CD33 mAb; also called C33H252/C33L118; C33F550
[1]
  koff: 1.29e-05 s⁻¹
[2]
  koff: 6.68e-05 s⁻¹
[10]
  MFI at 0 nM (background): 125 MFI
  MFI at 0.6 nM: 1730 MFI
  MFI at 6 nM: 7270 MFI
  MFI at 60 nM: 15100 MFI
[11]
  Kd: 0.433 nM
  koff: 0.00065 s⁻¹
  kon: 1.5e+06 M⁻¹ s⁻¹
[12]
  Kd: 0.0302 nM
  koff: 4.29e-05 s⁻¹
  kon: 1.42e+06 M⁻¹ s⁻¹
[13]
  MFI at 0 nM (background): 150 MFI
  MFI at 0.6 nM: 15700 MFI
  MFI at 6 nM: 101000 MFI
  MFI at 60 nM: 237000 MFI

B4: TMEB762 (antibody, human IgG4 S228P, kappa, F234A L235A, V domains shown)
VH: EVQLLESGGGLVQPGGSLRLSCAASGFTFSSYSMSWVRQAPGKGLEWVSVISGSGGFTDYADSVKGRFTISRDNSKNTLYLQMNSLRAEDTAVYYCARMPLNSPHDYWGQGTLVTVSS
VL: DIQMTQSPSSLSASVGDRVTITCRASQGIRNDLGWYQQKPGKAPKLLIYAASSLQSGVPSRFSGSGSGTDFTLTISSLQPEDFATYYCLQDYNYPLTFGGGTKVEIKR
notes: IgG4 PAA anti-TMEFF2; re-engineered variant of TMEB675; also called TMEH459/DL3L129
[3]
  response units (RU): 8.4 RU
[4]
  response units (RU): 4.6 RU
[5]
  response units (RU): 3.3 RU
[6]
  response units (RU): 4.1 RU
[7]
  response units (RU): 0 RU
[8]
  Kd: 0.0461 nM
[14]
  Kd: 0.32 nM
  koff: 0.000174 s⁻¹
  kon: 541000 M⁻¹ s⁻¹
